The target in the experiment is T1, Pwl2 without the signal peptide (residues 22-145) (Magnaporthe oryzae, UniProt G5EI71 22-145).
T1 sequence: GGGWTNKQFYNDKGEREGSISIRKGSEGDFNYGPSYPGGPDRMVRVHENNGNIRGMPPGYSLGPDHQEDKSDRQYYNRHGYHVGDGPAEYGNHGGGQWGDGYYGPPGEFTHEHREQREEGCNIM
The experiment can be described thus: ITC. (In ITC the heat of successive injections is recorded.)

B1: HMA domain of OsHIPP43 (residues 26-101) (domain or fragment)
chain: RPLQTVNIKVKMDCEGCERRVKNAVKSMRGVTSVAVNPKQSRCTVTGYVEASKVLERVKSTGKAAEMWPYVPYTMT
With B1, the Kd was found to be 191 nM and the dH is -67.6 kcal/mol.

A word on the Kd: it is the equilibrium constant for the complex coming apart.
